Experimental data from PMC7835349 (Communications Biology, 2021).

Tests used:
[1] = In vitro release of AZD4320 from dendrimer conjugates in PBS pH 7.4, 37 °C; details: for Cummulative Release % / Mean % Released: PBS 37 °C
Description: In vitro release half-life was calculated by least squares fitting to a 1st order release model.
AZD4320 release kinetics were determined in vitro under physiological conditions.
Nanoparticles were suspended in phosphate buffered saline (PBS) pH7.4 or rat plasma with 5%
HEPES in HPLC vials and sample temperature maintained to 37 °C using a water bath with
continuous stirring of the sample provided by iChem explorer unit. Periodically, 5-10 µL of
sample was injected onto the column (Acquity UPLC BEH shield RP18 1.7 µm, 4.6 x 30 mm,
Waters), bracketed by DMA to re-dissolve any precipitated AZD4320. The percent release was
calculated by comparing unconjugated AZD4320 peak area to total unconjugated + dendrimer-
conjugated AZD4320 peak areas. The half-life was calculated by least squares fitting to a 1st

platelets = test: Platelet count in dogs; type: in vivo; details: dog, weekly ascending doses
[2] = In vitro release of AZD4320 from conjugate in rat plasma with 5% HEPES, 37 °C (Fig S8); type: in vitro ADME; details: Rat Plasma 37 °C
Description: AZD4320 loading was quantified by 1H NMR spectroscopy. […]
conjugated AZD4320 peak areas. […]
AZD4320 conjugated dendrimer in plasma
Supplementary Figure 8. Comparison and release rate in plasma and buffer. Cumulative in vitro release of AZD4320 measured over time from AZD4320-dendrimer conjugate SPL8977) in phosphate buffered saline (purple circles, n=3) and rat plasma (green squares, n=2) and fit to first order model at 37 °C (n=2) […]

Substance: AZD4320-MIDA-PEG2100 [AZD0466]
- Cummulative Release % ([1]; 0.75 h, Replicate 1): 2.01%
- Cummulative Release % ([1]; 0.90 h, Replicate 2): 2.72%
- Cummulative Release % ([1]; 1.05 h, Replicate 3): 2.87%
- Cummulative Release % ([1]; 1.67 h, Replicate 1): 3.95%
- Cummulative Release % ([1]; 1.82 h, Replicate 2): 4.63%
- Cummulative Release % ([1]; 1.97 h, Replicate 3): 5.12%
- Cummulative Release % ([1]; 2.60 h, Replicate 1): 6.37%
- Cummulative Release % ([1]; 2.75 h, Replicate 2): 7.07%
- Cummulative Release % ([1]; 2.90 h, Replicate 3): 7.57%
- Cummulative Release % ([1]; 3.52 h, Replicate 1): 8.48%
- Cummulative Release % ([1]; 3.67 h, Replicate 2): 9.50%
- Cummulative Release % ([1]; 3.83 h, Replicate 3): 9.95%
- Cummulative Release % ([1]; 4.45 h, Replicate 1): 10.66%
- Cummulative Release % ([1]; 4.60 h, Replicate 2): 11.87%
- Cummulative Release % ([1]; 4.75 h, Replicate 3): 12.24%
- Cummulative Release % ([1]; 5.37 h, Replicate 1): 12.82%
- Cummulative Release % ([1]; 5.52 h, Replicate 2): 13.72%
- Cummulative Release % ([1]; 5.68 h, Replicate 3): 14.33%
- Cummulative Release % ([1]; 6.30 h, Replicate 1): 15.04%
- Cummulative Release % ([1]; 6.45 h, Replicate 2): 16.29%
- Cummulative Release % ([1]; 6.60 h, Replicate 3): 15.86%
- Cummulative Release % ([1]; 7.22 h, Replicate 1): 15.94%
- Cummulative Release % ([1]; 7.37 h, Replicate 2): 17.47%
- Cummulative Release % ([1]; 7.53 h, Replicate 3): 17.99%
- Cummulative Release % ([1]; 8.15 h, Replicate 1): 18.09%
- Cummulative Release % ([1]; 8.30 h, Replicate 2): 19.34%
- Cummulative Release % ([1]; 8.45 h, Replicate 3): 19.77%
- Cummulative Release % ([1]; 9.07 h, Replicate 1): 20.00%
- Cummulative Release % ([1]; 9.23 h, Replicate 2): 21.33%
- Cummulative Release % ([1]; 9.38 h, Replicate 3): 21.63%
- Cummulative Release % ([1]; 10.00 h, Replicate 1): 22.23%
- Cummulative Release % ([1]; 10.15 h, Replicate 2): 23.21%
- Cummulative Release % ([1]; 10.30 h, Replicate 3): 23.50%
- Cummulative Release % ([1]; 10.92 h, Replicate 1): 23.70%
- Cummulative Release % ([1]; 11.08 h, Replicate 2): 25.81%
- Cummulative Release % ([1]; 11.23 h, Replicate 3): 25.99%
- Cummulative Release % ([1]; 11.85 h, Replicate 1): 25.62%
- Cummulative Release % ([1]; 12.00 h, Replicate 2): 26.79%
- Cummulative Release % ([1]; 12.15 h, Replicate 3): 27.44%
- Cummulative Release % ([1]; 12.77 h, Replicate 1): 27.74%
- Cummulative Release % ([1]; 12.93 h, Replicate 2): 29.41%
- Cummulative Release % ([1]; 13.08 h, Replicate 3): 29.66%
- Cummulative Release % ([1]; 13.70 h, Replicate 1): 29.02%
- Cummulative Release % ([1]; 13.85 h, Replicate 2): 30.77%
- Cummulative Release % ([1]; 14.00 h, Replicate 3): 31.43%
- Cummulative Release % ([1]; 14.63 h, Replicate 1): 30.82%
- Cummulative Release % ([1]; 14.78 h, Replicate 2): 32.39%
- Cummulative Release % ([1]; 14.93 h, Replicate 3): 33.56%
- Cummulative Release % ([1]; 15.55 h, Replicate 1): 32.52%
- Cummulative Release % ([1]; 15.70 h, Replicate 2): 34.45%
- Cummulative Release % ([1]; 15.85 h, Replicate 3): 35.54%
- Cummulative Release % ([1]; 16.48 h, Replicate 1): 34.39%
- Cummulative Release % ([1]; 16.63 h, Replicate 2): 35.86%
- Cummulative Release % ([1]; 16.78 h, Replicate 3): 36.74%
- Cummulative Release % ([1]; 17.40 h, Replicate 1): 35.32%
- Cummulative Release % ([1]; 17.55 h, Replicate 2): 37.92%
- Cummulative Release % ([1]; 17.71 h, Replicate 3): 39.37%
- Cummulative Release % ([1]; 18.33 h, Replicate 1): 37.81%
- Cummulative Release % ([1]; 18.48 h, Replicate 2): 39.44%
- Cummulative Release % ([1]; 18.63 h, Replicate 3): 41.92%
- Cummulative Release % ([1]; 19.25 h, Replicate 1): 40.42%
- Cummulative Release % ([1]; 19.40 h, Replicate 2): 41.10%
- Cummulative Release % ([1]; 19.56 h, Replicate 3): 42.30%
- Cummulative Release % ([1]; 20.18 h, Replicate 1): 40.20%
- Cummulative Release % ([1]; 20.33 h, Replicate 2): 43.40%
- Cummulative Release % ([1]; 20.48 h, Replicate 3): 44.87%
- Cummulative Release % ([1]; 21.10 h, Replicate 1): 42.52%
- Cummulative Release % ([1]; 21.25 h, Replicate 2): 45.67%
- Cummulative Release % ([1]; 21.41 h, Replicate 3): 46.38%
- Cummulative Release % ([1]; 22.03 h, Replicate 1): 45.50%
- Cummulative Release % ([1]; 22.18 h, Replicate 2): 47.56%
- Cummulative Release % ([1]; 22.33 h, Replicate 3): 48.29%
- Cummulative Release % ([1]; 22.95 h, Replicate 1): 46.44%
- Cummulative Release % ([1]; 23.10 h, Replicate 2): 48.78%
- Cummulative Release % ([1]; 23.88 h, Replicate 1): 47.76%
- Cummulative Release % ([1]; 24.03 h, Replicate 2): 50.99%
- Cummulative Release % ([1]; 24.80 h, Replicate 1): 50.26%
- Cummulative Release % ([1]; 24.95 h, Replicate 2): 53.17%
- Mean % Released ([1]; mean time 0.90 h): 2.53%
- Mean % Released ([1]; mean time 1.82 h): 4.57%
- Mean % Released ([1]; mean time 2.75 h): 7.00%
- Mean % Released ([1]; mean time 3.67 h): 9.31%
- Mean % Released ([1]; mean time 4.60 h): 11.59%
- Mean % Released ([1]; mean time 5.52 h): 13.62%
- Mean % Released ([1]; mean time 6.45 h): 15.73%
- Mean % Released ([1]; mean time 7.37 h): 17.14%
- Mean % Released ([1]; mean time 8.30 h): 19.07%
- Mean % Released ([1]; mean time 9.23 h): 20.98%
- Mean % Released ([1]; mean time 10.15 h): 22.98%
- Mean % Released ([1]; mean time 11.08 h): 25.17%
- Mean % Released ([1]; mean time 12.00 h): 26.61%
- Mean % Released ([1]; mean time 12.93 h): 28.93%
- Mean % Released ([1]; mean time 13.85 h): 30.40%
- Mean % Released ([1]; mean time 14.78 h): 32.26%
- Mean % Released ([1]; mean time 15.70 h): 34.17%
- Mean % Released ([1]; mean time 16.63 h): 35.66%
- Mean % Released ([1]; mean time 17.55 h): 37.54%
- Mean % Released ([1]; mean time 18.48 h): 39.72%
- Mean % Released ([1]; mean time 19.40 h): 41.27%
- Mean % Released ([1]; mean time 20.33 h): 42.83%
- Mean % Released ([1]; mean time 21.25 h): 44.86%
- Mean % Released ([1]; mean time 22.18 h): 47.12%
- Mean % Released ([1]; mean time 23.03 h): 47.61%
- Mean % Released ([1]; mean time 23.95 h): 49.38%
- Mean % Released ([1]; mean time 24.88 h): 51.72%
- In vitro release half-life (t1/2) of AZD4320 ([1]; PBS pH 7.4, 37 °C, first order fit): 25.5 h
- effect on platelet count (platelets): reversible and dose-dependent decrease in platelet count
- Cummulative Release % ([2]; 1.06 h, Replicate 1): 2.56%
- Cummulative Release % ([2]; 1.24 h, Replicate 2): 3.28%
- Cummulative Release % ([2]; 5.87 h, Replicate 1): 9.61%
- Cummulative Release % ([2]; 6.04 h, Replicate 2): 11.99%
- Cummulative Release % ([2]; 10.67 h, Replicate 1): 18.75%
- Cummulative Release % ([2]; 10.85 h, Replicate 2): 23.05%
- Cummulative Release % ([2]; 15.47 h, Replicate 1): 27.34%
- Cummulative Release % ([2]; 15.65 h, Replicate 2): 32.24%
- Cummulative Release % ([2]; 20.27 h, Replicate 1): 39.17%
- Cummulative Release % ([2]; 20.45 h, Replicate 2): 41.44%
